# Experimental data: patent US20180105569A1 (INDIANA UNIVERSITY RESEARCH AND TECHNOLOGY, published 2018)
# Where two headings read alike, the source gives them in different places. Numbered stars: 1 amine (or outer) side, 2 acyl side, 3 side chain; on linkers, the order of the positions; unused ones are H or OH. Square brackets hold non-standard residues; d marks the D form. Side chains are listed from the residue outwards. Ends that are not written are not given here. * marks the point of attachment. β2His = Beta2-His (beta2-homo amino acid form of His; γGlu = O=C(O)[C@H](CCC(=O)[*:2])N[*:1]; Desaminohistidyl = O=C(CCc1c[nH]cn1)*; Desaminotyrosyl = O=C(CCc1ccc(O)cc1)*; Palmitoyl = CCCCCCCCCCCCCCCC(=O)*; dthioAla = not defined here; thioAla = not defined here; Orn = NCCC[C@H](N)C(=O)O; Aib = CC(C)(N)C(=O)O; Sar = CNCC(=O)O
# T1: GIP receptor (UniProt P48546 22-466, limits assumed)
# T1 sequence (looked up): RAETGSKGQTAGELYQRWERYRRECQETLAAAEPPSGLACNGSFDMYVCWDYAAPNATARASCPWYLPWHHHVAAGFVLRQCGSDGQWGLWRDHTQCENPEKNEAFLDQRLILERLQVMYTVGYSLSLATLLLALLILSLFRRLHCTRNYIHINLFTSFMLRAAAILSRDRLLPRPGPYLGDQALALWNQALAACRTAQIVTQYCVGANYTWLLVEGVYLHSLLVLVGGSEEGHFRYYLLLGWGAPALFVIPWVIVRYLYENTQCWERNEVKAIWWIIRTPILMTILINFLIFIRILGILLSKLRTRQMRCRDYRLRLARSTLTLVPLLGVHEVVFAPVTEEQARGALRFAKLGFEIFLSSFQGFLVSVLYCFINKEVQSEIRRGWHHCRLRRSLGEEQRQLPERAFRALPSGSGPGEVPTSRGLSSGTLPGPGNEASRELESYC
# Tests used:
# Assay in all cases: cell-based or functional assay
# [1] = target: T2, glucagon receptor (UniProt P47871 26-477, limits assumed)
# T2 sequence (P47871 26-477 limits assumed): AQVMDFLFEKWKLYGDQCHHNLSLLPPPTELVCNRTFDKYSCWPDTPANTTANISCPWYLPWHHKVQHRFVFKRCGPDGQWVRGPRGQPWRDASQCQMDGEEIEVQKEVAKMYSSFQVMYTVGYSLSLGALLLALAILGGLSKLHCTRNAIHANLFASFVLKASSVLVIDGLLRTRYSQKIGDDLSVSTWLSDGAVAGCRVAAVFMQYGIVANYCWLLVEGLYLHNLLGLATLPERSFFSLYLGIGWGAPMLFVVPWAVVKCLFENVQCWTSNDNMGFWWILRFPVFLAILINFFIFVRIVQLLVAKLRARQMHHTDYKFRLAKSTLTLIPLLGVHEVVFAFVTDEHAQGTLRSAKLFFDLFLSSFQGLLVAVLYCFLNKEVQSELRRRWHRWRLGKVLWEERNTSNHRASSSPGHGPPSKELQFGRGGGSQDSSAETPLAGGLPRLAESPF
# [2] = target: GLP-1 receptor (UniProt P43220 24-463, limits assumed)
# [3] = target: T1, GIP receptor
# [4] = target: T1, GIP receptor; remark: listed apart in the source
# [5] = target: T2, glucagon receptor; remark: listed apart in the source
Binder,"EC50 at Glucagon Receptor (cAMP luciferase reporter, HEK293) [1]","EC50 at GLP-1 Receptor (cAMP luciferase reporter, HEK293) [2]","EC50 at GIP Receptor (cAMP luciferase reporter, HEK293) [3]","EC50 at GIP Receptor (cAMP luciferase reporter, HEK293) [4]","EC50 at Glucagon Receptor (cAMP luciferase reporter, HEK293) [5]"
[β2His]AQGTFTSDK([γGlu-Palmitoyl])SKYLDERAAQDFVQWLLEGGPSSGAPPPS-NH2 [peptide of SEQ ID NO: 25],0.024 nM,3 pM,0.064 nM,,
[Desaminohistidyl]AQGTFTSDK([γGlu-Palmitoyl])SKYLDERAAQDFVQWLLEGGPSSGAPPPS-NH2 [peptide of SEQ ID NO: 22],0.017 nM,3 pM,0.041 nM,,
[thioAla]PQGTFTSDK([γGlu-Palmitoyl])SKYLDERAAQDFVQWLLEGGPSSGAPPPS-NH2 (reading uncertain) [peptide of SEQ ID NO: 33],0.121 nM,5 pM,0.43 nM,,
[dH]PQGTFTSDK([γGlu-Palmitoyl])SKYLDERAAQDFVQWLLEGGPSSGAPPPS-NH2 [peptide of SEQ ID NO: 27],0.034 nM,3 pM,0.08 nM,,
Ac-[thioAla]AQGTFTSDK([γGlu-Palmitoyl])SKYLDERAAQDFVQWLLEGGPSSGAPPPS-NH2 (reading uncertain) [peptide of SEQ ID NO: 21],0.006 nM,26 pM,0.04 nM,,
Ac-[dH]AQGTFTSDK([γGlu-Palmitoyl])SKYLDERAAQDFVQWLLEGGPSSGAPPPS-NH2 [peptide of SEQ ID NO: 13],0.002 nM,4 pM,0.004 nM,,
[thioAla]GQGTFTSDK([γGlu-Palmitoyl])SKYLDERAAQDFVQWLLEGGPSSGAPPPS-NH2 (reading uncertain) [peptide of SEQ ID NO: 29],0.038 nM,7 pM,0.095 nM,,
H[Aib]QGTFTSDK([γGlu-Palmitoyl])SKYLDERAAQDFVQWLLEGGPSSGAPPPS-NH2 [peptide of SEQ ID NO: 37],0.009 nM,6 pM,0.003 nM,,
H[Sar]QGTFTSDK([γGlu-Palmitoyl])SKYLDERAAQDFVQWLLEGGPSSGAPPPS-NH2 [peptide of SEQ ID NO: 28],0.022 nM,2 pM,0.081 nM,,
[dH]GQGTFTSDK([γGlu-Palmitoyl])SKYLDERAAQDFVQWLLEGGPSSGAPPPS-NH2 [peptide of SEQ ID NO: 23],0.015 nM,3 pM,0.043 nM,,
[Desaminotyrosyl]AQGTFTSDK([γGlu-Palmitoyl])SKYLDERAAQDFVQWLLEGGPSSGAPPPS-NH2 [peptide of SEQ ID NO: 11],0.016 nM,2 pM,0.002 nM,,
H[Aib]QGTFTSDK([γGlu-Palmitoyl])SKYLDERAAQDFVQWLLDGGPSSGAPPPS-NH2 [peptide of SEQ ID NO: 10],0.005 nM,5 pM,0.003 nM,,
Ac-YA[dQ]GTFTSDK([γGlu-Palmitoyl])SKYLDERAAQDFVQWLLEGGPSSGAPPPS-NH2 [peptide of SEQ ID NO: 158],,,,0.069 nM,
XAQGTFTSDKSKYLDERAAQDFVQWLLEGGPSSGAPPPS (position 1 His; position 2 β-Ala; C-terminal amide; other non-coded or acylated residues as in the sequence listing) [peptide of SEQ ID NO: 26],0.095 nM,2 pM,0.071 nM,,
XAEGTFTSDKSKYLDERAAQDFVQWLLEGGPSSGAPPPS (position 1 Des-NH2-Tyr (desamino L-Tyr); position 2 Ala; C-terminal amide; other non-coded or acylated residues as in the sequence listing) [peptide of SEQ ID NO: 145],,,,0.003 nM,3.73 nM
Ac-[dY]AQGTFTSDK([γGlu-Palmitoyl])SKYLDERAAQDFVQWLLEGGPSSGAPPPS-NH2 [peptide of SEQ ID NO: 12],0.007 nM,3 pM,0.002 nM,,
Ac-YAQGTFTSDK([γGlu-Palmitoyl])SKYLDERAAQDFVQWLLEGGPSSGAPPPS-NH2 [peptide of SEQ ID NO: 155],,,,0.037 nM,
Ac-QGQGTFTSDK([γGlu-Palmitoyl])SKYLDERAAQDFVQWLLEGGPSSGAPPPS-NH2 [peptide of SEQ ID NO: 34],0.163 nM,611 pM,0.436 nM,,
Ac-[dthioAla]AQGTFTSDK([γGlu-Palmitoyl])SKYLDERAAQDFVQWLLEGGPSSGAPPPS-NH2 (reading uncertain) [peptide of SEQ ID NO: 17],0.008 nM,5 pM,0.011 nM,,
Ac-[Orn]AQGTFTSDK([γGlu-Palmitoyl])SKYLDERAAQDFVQWLLEGGPSSGAPPPS-NH2 [peptide of SEQ ID NO: 30],0.635 nM,2 pM,0.183 nM,,
[dH]AQGTFTSDK([γGlu-Palmitoyl])SKYLDERAAQDFVQWLLEGGPSSGAPPPS-NH2 [peptide of SEQ ID NO: 16],0.01 nM,2 pM,0.01 nM,,
[Desaminohistidyl]GQGTFTSDK([γGlu-Palmitoyl])SKYLDERAAQDFVQWLLEGGPSSGAPPPS-NH2 [peptide of SEQ ID NO: 31],0.022 nM,3 pM,0.226 nM,,
Ac-[dY]GQGTFTSDK([γGlu-Palmitoyl])SKYLDERAAQDFVQWLLEGGPSSGAPPPS-NH2 [peptide of SEQ ID NO: 14],0.005 nM,22 pM,0.005 nM,,
[dY]AQGTFTSDK([γGlu-Palmitoyl])SKYLDERAAQDFVQWLLEGGPSSGAPPPS-NH2 [peptide of SEQ ID NO: 15],0.05 nM,4 pM,0.008 nM,,
